Ki data for one substance are collected here from patent US20060234940A1.

The experiment has as its target recombinant human DP IV, wild type (human) (UniProt P27487). The experiment can be described thus: photometric assay, competition with the standard substrate GP-4NA.

Chain of recombinant human DP IV, wild type (human) (P27487 other isoform, or with tags, fused parts or gaps): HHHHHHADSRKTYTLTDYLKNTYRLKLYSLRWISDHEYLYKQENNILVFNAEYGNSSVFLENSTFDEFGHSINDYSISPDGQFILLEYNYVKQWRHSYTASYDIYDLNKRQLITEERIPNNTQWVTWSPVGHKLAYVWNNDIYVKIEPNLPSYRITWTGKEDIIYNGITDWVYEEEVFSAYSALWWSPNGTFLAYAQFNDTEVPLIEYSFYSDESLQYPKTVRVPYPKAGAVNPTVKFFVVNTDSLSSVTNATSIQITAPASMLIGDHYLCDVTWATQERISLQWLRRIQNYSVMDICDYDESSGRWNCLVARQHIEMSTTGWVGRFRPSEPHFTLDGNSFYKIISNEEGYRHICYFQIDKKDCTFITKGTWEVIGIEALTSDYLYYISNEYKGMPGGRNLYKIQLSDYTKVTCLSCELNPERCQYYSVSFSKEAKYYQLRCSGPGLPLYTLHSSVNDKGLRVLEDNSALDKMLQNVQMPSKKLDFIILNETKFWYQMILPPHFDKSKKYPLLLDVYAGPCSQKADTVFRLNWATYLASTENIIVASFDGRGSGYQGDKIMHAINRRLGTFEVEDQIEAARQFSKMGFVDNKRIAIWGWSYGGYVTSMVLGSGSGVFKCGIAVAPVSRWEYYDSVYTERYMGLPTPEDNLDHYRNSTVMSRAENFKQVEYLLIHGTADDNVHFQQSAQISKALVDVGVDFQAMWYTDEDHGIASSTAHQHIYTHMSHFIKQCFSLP

For orientation: Ki means the dissociation constant of the complex between target and ligand, obtained from inhibition or displacement. Turning to “PACAP-27 (from UniProt P18509 132-158) (peptide)”, the Ki turned out to be 113 µM.
